Publication PMC11018839, “ANKFY1 bridges ATG2A-mediated lipid transfer from endosomes to phagophores” (Cell Discovery, 2024)

Target: T1, purified Flag-ATG2A-His protein (human, UniProt Q2TAZ0 1-1938)
T1 construct: ATG2A, human; Flag-ATG2A-His with a C-terminal His tag; not shown: His tag, C-terminal, kept
Assay: liposome co-flotation; 100 nm liposomes with 5% PI3P (2% Rhod-PE, 30% POPE, 63% DOPC), 1 mM lipids, incubated with 4.28 uM ANKFY1, 0.5 uM ATG2A or both at 37 °C for 1 h; 50 mM HEPES pH 8.0, 300 mM NaCl, 1 mM TCEP; floated on a histodenz gradient; topmost fraction analysed by SDS-PAGE and western blot
Details: both partners purified

T1 sequence (Q2TAZ0 whole entry): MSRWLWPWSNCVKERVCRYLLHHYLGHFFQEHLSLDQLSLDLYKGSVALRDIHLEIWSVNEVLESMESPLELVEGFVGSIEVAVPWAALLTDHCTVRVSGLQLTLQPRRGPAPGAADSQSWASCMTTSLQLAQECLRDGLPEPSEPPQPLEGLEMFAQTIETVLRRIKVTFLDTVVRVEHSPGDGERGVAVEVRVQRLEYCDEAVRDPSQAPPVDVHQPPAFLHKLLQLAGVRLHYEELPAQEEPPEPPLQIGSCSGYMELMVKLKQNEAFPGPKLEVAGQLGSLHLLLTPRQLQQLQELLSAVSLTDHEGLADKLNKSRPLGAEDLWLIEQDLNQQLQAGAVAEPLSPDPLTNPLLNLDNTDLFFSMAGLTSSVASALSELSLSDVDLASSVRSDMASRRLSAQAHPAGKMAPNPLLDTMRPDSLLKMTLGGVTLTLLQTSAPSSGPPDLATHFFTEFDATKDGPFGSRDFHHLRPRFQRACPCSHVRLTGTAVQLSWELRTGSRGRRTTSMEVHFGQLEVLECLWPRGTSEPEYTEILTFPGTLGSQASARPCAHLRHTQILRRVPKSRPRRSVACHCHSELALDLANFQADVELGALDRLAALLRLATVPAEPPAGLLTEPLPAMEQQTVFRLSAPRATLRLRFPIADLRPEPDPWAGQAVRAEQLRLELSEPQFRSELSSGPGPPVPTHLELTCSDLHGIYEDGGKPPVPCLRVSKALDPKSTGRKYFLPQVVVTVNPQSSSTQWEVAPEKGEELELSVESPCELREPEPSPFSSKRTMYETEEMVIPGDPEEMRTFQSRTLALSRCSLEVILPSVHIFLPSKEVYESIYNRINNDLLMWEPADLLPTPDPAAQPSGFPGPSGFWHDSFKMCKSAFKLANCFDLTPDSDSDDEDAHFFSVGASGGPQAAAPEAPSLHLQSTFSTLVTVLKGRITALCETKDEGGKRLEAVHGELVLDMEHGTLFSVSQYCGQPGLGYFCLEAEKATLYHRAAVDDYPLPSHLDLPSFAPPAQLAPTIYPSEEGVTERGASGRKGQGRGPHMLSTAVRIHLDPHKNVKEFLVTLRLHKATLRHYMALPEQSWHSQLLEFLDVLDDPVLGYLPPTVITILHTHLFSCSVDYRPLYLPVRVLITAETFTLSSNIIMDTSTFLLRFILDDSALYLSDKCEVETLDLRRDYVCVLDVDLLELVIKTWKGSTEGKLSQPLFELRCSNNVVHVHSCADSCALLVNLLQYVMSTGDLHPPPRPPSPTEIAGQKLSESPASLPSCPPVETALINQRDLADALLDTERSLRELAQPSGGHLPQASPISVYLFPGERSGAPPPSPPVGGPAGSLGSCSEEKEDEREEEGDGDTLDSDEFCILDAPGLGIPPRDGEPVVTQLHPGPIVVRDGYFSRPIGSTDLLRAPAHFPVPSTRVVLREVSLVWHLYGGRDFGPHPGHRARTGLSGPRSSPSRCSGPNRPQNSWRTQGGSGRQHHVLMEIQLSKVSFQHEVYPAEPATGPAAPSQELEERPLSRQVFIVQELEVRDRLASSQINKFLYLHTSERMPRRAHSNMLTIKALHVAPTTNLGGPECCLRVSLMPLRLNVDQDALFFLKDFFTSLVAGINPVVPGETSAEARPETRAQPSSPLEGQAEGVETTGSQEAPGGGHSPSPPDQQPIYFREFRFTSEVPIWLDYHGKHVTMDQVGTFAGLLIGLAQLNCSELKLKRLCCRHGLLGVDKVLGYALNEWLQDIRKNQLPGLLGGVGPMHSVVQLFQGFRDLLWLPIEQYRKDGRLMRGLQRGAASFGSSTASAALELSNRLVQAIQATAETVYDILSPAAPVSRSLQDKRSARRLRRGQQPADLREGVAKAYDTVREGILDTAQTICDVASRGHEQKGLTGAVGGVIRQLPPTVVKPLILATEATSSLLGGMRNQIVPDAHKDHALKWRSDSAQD

binding result: binds
B1: purified Flag-ANKFY1 full-length protein (natural protein, human, UniProt Q9P2R3 1-1169, looked up)
chain: MAEEEVAKLEKHLMLLRQEYVKLQKKLAETEKRCALLAAQANKESSSESFISRLLAIVADLYEQEQYSDLKIKVGDRHISAHKFVLAARSDSWSLANLSSTKELDLSDANPEVTMTMLRWIYTDELEFREDDVFLTELMKLANRFQLQLLRERCEKGVMSLVNVRNCIRFYQTAEELNASTLMNYCAEIIASHWDDLRKEDFSSMSAQLLYKMIKSKTEYPLHKAIKVEREDVVFLYLIEMDSQLPGKLNEADHNGDLALDLALSRRLESIATTLVSHKADVDMVDKSGWSLLHKGIQRGDLFAATFLIKNGAFVNAATLGAQETPLHLVALYSSKKHSADVMSEMAQIAEALLQAGANPNMQDSKGRTPLHVSIMAGNEYVFSQLLQCKQLDLELKDHEGSTALWLAVQHITVSSDQSVNPFEDVPVVNGTSFDENSFAARLIQRGSHTDAPDTATGNCLLQRAAGAGNEAAALFLATNGAHVNHRNKWGETPLHTACRHGLANLTAELLQQGANPNLQTEEALPLPKEAASLTSLADSVHLQTPLHMAIAYNHPDVVSVILEQKANALHATNNLQIIPDFSLKDSRDQTVLGLALWTGMHTIAAQLLGSGAAINDTMSDGQTLLHMAIQRQDSKSALFLLEHQADINVRTQDGETALQLAIRNQLPLVVDAICTRGADMSVPDEKGNPPLWLALANNLEDIASTLVRHGCDATCWGPGPGGCLQTLLHRAIDENNEPTACFLIRSGCDVNSPRQPGANGEGEEEARDGQTPLHLAASWGLEETVQCLLEFGANVNAQDAEGRTPIHVAISSQHGVIIQLLVSHPDIHLNVRDRQGLTPFACAMTFKNNKSAEAILKRESGAAEQVDNKGRNFLHVAVQNSDIESVLFLISVHANVNSRVQDASKLTPLHLAVQAGSEIIVRNLLLAGAKVNELTKHRQTALHLAAQQDLPTICSVLLENGVDFAAVDENGNNALHLAVMHGRLNNIRVLLTECTVDAEAFNLRGQSPLHILGQYGKENAAAIFDLFLECMPGYPLDKPDADGSTVLLLAYMKGNANLCRAIVRSGARLGVNNNQGVNIFNYQVATKQLLFRLLDMLSKEPPWCDGSYCYECTARFGVTTRKHHCRHCGRLLCHKCSTKEIPIIKFDLNKPVRVCNICFDVLTLGGVS
notes: ANKFY1, human, full length (ANKFY1-FL), N-terminal Flag tag, pCDNA4-TO vector; also called ANKFY1-FL; ANKFY1-Flag; source: 293S cells, purified (anti-Flag M2 resin, eluted with 3x Flag peptide); not shown: Flag, N-terminal, kept
